Measured values reported in patent US20020143152A1, “Polypeptides, their production and use” (priority 1997, published 2002).
“Also recorded” adds a separate entry of the source. Non-standard residues stand in square brackets, D forms with d. No end group written: not given here. Met(O) = CS(=O)CC[C@H](N)C(=O)O

target: T1, full-length human pituitary G protein-coupled receptor protein (phGR3) expressed in CHO-19P2 cells (Homo sapiens, UniProt P49683); assay: release of [3H] arachidonic acid metabolites from CHO-19P2 cells; assay type: cell-based; settings: synthetic peptide diluted with 0.05% BSA-HBSS to 10^−12M-10^−6M; radioactivity of [3H] arachidonic acid metabolites released in supernatant
T1 construct: a ligation reaction was carried out to construct a full-length receptor protein expression plasmid pAKKO-19P2; expressed in transfected cells
T1 sequence (P49683 1-370): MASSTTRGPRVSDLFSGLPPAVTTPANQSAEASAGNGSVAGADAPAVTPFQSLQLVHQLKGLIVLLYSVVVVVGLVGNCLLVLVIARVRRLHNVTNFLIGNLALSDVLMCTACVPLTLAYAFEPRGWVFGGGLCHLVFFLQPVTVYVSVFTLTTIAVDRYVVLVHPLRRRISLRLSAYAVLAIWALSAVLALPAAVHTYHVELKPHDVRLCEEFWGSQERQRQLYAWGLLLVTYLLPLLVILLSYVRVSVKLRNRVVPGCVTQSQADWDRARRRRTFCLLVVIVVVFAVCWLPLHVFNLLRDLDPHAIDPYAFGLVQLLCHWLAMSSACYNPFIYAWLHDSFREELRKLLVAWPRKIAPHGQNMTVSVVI
Description: The full-length receptor protein-expressed CHO cells and mock CHO cells were seeded in a 24-well plate, 0.5×10^5 cells/well, and cultured for 24 hours. Then, [^3H] arachidonic acid was added at a final concentration of 0.25μCi/well. Sixteen (16) hours after addition of [^3H] arachidonic acid, the cells were rinsed with 0.05% BSA-HBSS and the above-mentioned crude peptide fraction was added, 400 μl/well. The mixture was incubated at 37 C. for 30 minutes and a 300 μl portion of the reaction mixture (400 μl) was added to a scintillator (4 ml) and the amount of [^3H] arachidonic acid metabolite released into the reaction mixture was determined with a scintillation counter. As a result, an arachidonic acid metabolite-releasing activity specific to the full-length receptor protein expressed CHO cells (CHO-19P2) was detected in the 30% CH3CN fraction of the eluate FIG. 16.
The activity of the peptide (19P2-L31) synthesized in Example 21 to specifically release arachidonic acid metabolites from CHO-19P2 cells was assayed in the same manner as Example 11. The synthetic peptide was dissolved in degassed distilled water at a concentration of 10^−3M and diluted with 0.05% BSA-HBSS and the activity to promote release of arachidonic acid metabolites from CHO-19P2 cells at each concentration was assayed using the amount of [^3H] arachidonic acid metabolites as the indicator.
The activity of the synthetic equivalent (19P2- L20) of natural peptide P-2 as synthesized in Example 23 to specifically promote release of arachidonic acid metabolites from CHO-19P2 cells was determined as in Example 11. Thus, the synthetic peptide was dissolved in degassed distilled water at a final concentration of 10^−3M and this solution was serially diluted with 0.05% BAS-HBSS. The activity to specifically promote release of arachidonic acid metabolites from CHO-19P2 cells at each concentration was assayed using the amount of [^3H] arachidonic acid metabolites as the indicator.

Row | Substance | activity to specifically promote release of arachidonic acid metabolites from CHO-19P2 cells
1 | Thr-Pro-Asp-Ile-Asn-Pro-Ala-Trp-Tyr-Ala-Gly-Arg-Gly-Ile-Arg-Pro-Val-Gly-Arg-Phe-NH2 (TPDINPAWYAGRGIRPVGRF-NH2) [19P2-L20] | concentration-dependent arachidonic acid metabolite-releasing activity was detected over the range of 10^−12 -10^−6M in nearly the same degree as 19P2-L31; also recorded: found in a dose-dependent manner
2 | Ser-Arg-Ala-His-Gln-His-Ser-Met(O)-Glu-Ile-Arg-Thr-Pro-Asp-Ile-Asn-Pro-Ala-Trp-Tyr-Ala-Gly-Arg-Gly-Ile-Arg-Pro-Val-Gly-Arg-Phe-NH2 (SRAHQHS[Met(O)]EIRTPDINPAWYAGRGIRPVGRF-NH2; N-terminus assumed; SMILES CC[C@H](C)[C@H](NC(=O)CNC(=O)[C@H](CCCNC(=N)N)NC(=O)CNC(=O)[C@H](C)NC(=O)[C@H](Cc1ccc(O)cc1)NC(=O)[C@H](Cc1c[nH]c2ccccc12)NC(=O)[C@H](C)NC(=O)[C@@H]1CCCN1C(=O)[C@H](CC(N)=O)NC(=O)[C@@H](NC(=O)[C@H](CC(=O)O)NC(=O)[C@@H]1CCCN1C(=O)[C@@H](NC(=O)[C@H](CCCNC(=N)N)NC(=O)[C@@H](NC(=O)[C@H](CCC(=O)O)NC(=O)[C@H](CCS(C)=O)NC(=O)[C@H](CO)NC(=O)[C@H](Cc1c[nH]cn1)NC(=O)[C@H](CCC(N)=O)NC(=O)[C@H](Cc1c[nH]cn1)NC(=O)[C@H](C)NC(=O)[C@H](CCCNC(=N)N)NC(=O)[C@@H](N)CO)[C@@H](C)CC)[C@@H](C)O)[C@@H](C)CC)C(=O)N[C@@H](CCCNC(=N)N)C(=O)N1CCC[C@H]1C(=O)N[C@H](C(=O)NCC(=O)N[C@@H](CCCNC(=N)N)C(=O)N[C@@H](Cc1ccccc1)C(N)=O)C(C)C) [19P2-L31(O), methionine-oxidation product of 19P2-L31] | equivalent to the activity of 19P2-L31; also recorded: found in a dose-dependent manner
3 | Ser-Arg-Ala-His-Gln-His-Ser-Met-Glu-Ile-Arg-Thr-Pro-Asp-Ile-Asn-Pro-Ala-Trp-Tyr-Ala-Gly-Arg-Gly-Ile-Arg-Pro-Val-Gly-Arg-Phe-NH2 (SRAHQHSMEIRTPDINPAWYAGRGIRPVGRF-NH2) [19P2-L31] | concentration-dependent arachidonic acid metabolite-releasing activity was detected over the range of 10^−12M -10^−6M; also recorded: found in a concentration-dependent manner
